{
  "source": "paper doi:10.1101/2024.10.13.618061",
  "about": "(bioRxiv, 2024)",
  "target": "the molecule itself",
  "assay": "negative-staining EM",
  "data": [
    {"protein": "wheat Sr35 (Triticum monococcum; TmSr35) [change]/[change], untagged (receptor) MEIAMGAIGSELPKEGELLIGEITLEKKVRKGIESLITELKLMQAVLSKVSKVPADQLDEGVKIWAGNVKELSYQMEDIVDAFMVRVGDGGESTNPKNRVKKILKKVKKLFKNGKDLHRISAALEEVVLQAKQLAELRQRYEQEMRDTSANTSVDPRMMALYTDVTELVGIEETRDKLINMLTEGDDWSKHPLKTISIVGFGGLGKTTLAKAAYDKIKVQFDCGAFVSVSRNPEMKKVLKDILYGLDKVKYENIHNAARDEKYLIDDIIEFLNDKRYLIVIDDIWNEKAWELIKCAFSKKSPGSRLITTTRNVSVSEACCSSEDDIYRMEPLSNDVSRTLFCKRIFSQEEGCPQELLKVSEEILKKCGGVPLAIITIASLLANKGHIKAKDEWYALLSSIGHGLTKNRSLEQMKKILLFSYYDLPSYLKPCLLYLSIFPEDREIRRARLIWRWISEGFVYSEKQDISLYELGDSYFNELVNRSMIQPIGIDDEGKVKACRVHDMVLDLICSLSSEENFVTILDDPRRKMPNSESKVRRLSIQNSKIDVDTTRMEHMRSVTVFSDNVVGKVLDISRFKVLRVLDLEGCHVSDVGYVGNLLHLRYLGLKGTHVKDLPMEIGKLQFLLTLDLRGTKIEVLPWSVVQLRRLMCLYVDYGMKLPSGIGNLTFLEVLDDLGLSDVDLDFVKELGRLTKLRVLRLDFHGFDQSMGKALEESISNMYKLDSLDVFVNRGLINCLSEHWVPPPRLCRLAFPSKRSWFKTLPSWINPSSLPLLSYLDITLFEVRSEDIQLLGTLPALVYLEIWNYSVFEEAHEVEAPVLSSGAALFPCATECRFIGIGAVPSMFPQGAAPRLKRLWFTFPAKWISSENIGLGMRHLPSLQRVVVDVISEGASREEADEAEAALRAAAEDHPNRPILDIW", "values": [
      {"measurement": "stoichiometry N", "value": 5}
    ]}
  ]
}
